# Source: PMC11667166, “O-glycosylation is essential for cell surface expression of the transcobalamin receptor CD320” (The Journal of Biological Chemistry, 2024)
# B1: human CD320 (transcobalamin receptor), wild type, with an N-terminal FLAG or V5 tag (receptor, UniProt Q9NPF0-1 36-282, looked up)
# chain: SPLSTPTSAQAAGPSSGSCPPTKFQCRTSGLCVPLTWRCDRDLDCSDGSDEEECRIEPCTQKGQCPPPPGLPCPCTGVSDCSGGTDKKLRNCSRLACLAGELRCTLSDDCIPLTWRCDGHPDCPDSSDELGCGTNEILPEGDATTMGPPVTLESVTSLRNATTMGPPVTLESVPSVGNATSSSAGDQSGSPTAYGVIAAAAVLSASLVTATLLLLSWLRAQERLRPLGLLVAMKESLLLSEQKTSLP
# modifications: N-glycans at N126, N195 and N213; terminally sialylated O-glycans (the ~70-kDa proteoform)
# notes: CD320 (transcobalamin receptor), human, NCBI NP_057663.1; wild type; type I transmembrane protein with signal peptide, two LDLR repeats, EGF-like module, transmembrane domain and cytoplasmic segment; Two differently tagged copies of the same protein (one with N-terminal FLAG, one with N-terminal V5) were co-expressed; each chain carries only one of the two tags; The ~350-kDa complex is seen only …
# Molecular target: the molecule itself
# Test: co-IP; CD320-FLAG and CD320-V5 co-expressed in HEK293 cells; immunoprecipitation with anti-FLAG or anti-V5 antibody, western blotting with anti-FLAG or anti-V5 under non-reducing conditions (~350-kDa band)
protein,measurement,value
B1,stoichiometry N,~5
